From patent US20260234238A1 (GEOVISTA, published 2026)
“And” between values parts separate entries of the source, which are not always exact repeats. Equal values may be shown once.

T1: recombinant histidine-tagged canine interleukin-13 (cIL-13) (canine, UniProt Q9N0W9 19-131, N-linked glycans attached to asparagine residues at positions 38, 48, 56, and 71)
T1 construct: mature; Secreted from ExpiCHO-S cells and purified by IMAC; also called canine IL-13; Canis Interleukin-13
T1 sequence: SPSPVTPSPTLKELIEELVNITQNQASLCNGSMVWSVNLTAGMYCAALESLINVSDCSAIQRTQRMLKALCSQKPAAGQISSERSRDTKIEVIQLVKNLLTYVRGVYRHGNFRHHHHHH


Experiments:
[1] = target: T1, recombinant histidine-tagged canine …; experiment: ELISA, His-tagged cIL-13 on nickel-coated plate
Experimental: In one embodiment of the present disclosure, recombinant canine IL-13 (cIL-13) protein with a histidine tag was dispensed onto nickel-coated plates (Thermo Fisher, #15442) at 100 ng/100 μL per well and incubated at room temperature for 1 hour. The plates were then washed three times with 1×PBST, and serial dilutions of the chimeric antibodies in 1×PBS were added and incubated at room temperature for 1 hour to allow antigen-antibody binding. After three washes with 1×PBST, an HRP-conjugated secondary antibody that cross-reacts with canine antibodies was diluted 1:100 in casein buffer and added at 100 μL per well, followed by incubation at 37° C. for 30 minutes. The HRP-conjugated secondary antibody used may be Jackson ImmunoResearch, #115-036-071, and the casein buffer may be Thermo Fisher Scientific, #37528; however, these examples are not intended to limit the scope of the present disclosure. After another three washes with 1×PBST, TMB was added to initiate color development, and the reaction was terminated by the addition of an equal volume of 1.0 N sulfuric acid.

[2] = target: T1, recombinant histidine-tagged canine …; experiment: ELISA, His-tagged cIL-13 on nickel plate
Experimental: A conventional ELISA method was used to assess the antigen reactivity of the caninized antibodies. The inventors of the present invention coated 96-well nickel plates with His-tagged cIL-13 at a concentration of 1 μg/mL and incubated the plates at room temperature for 1 hour. Wells were washed three times using 200 μL of wash buffer per well; the wash buffer consisted of 1×PBS containing 0.1% Tween-20. In one embodiment of the present disclosure, diluted antibodies were added to the wells at 100 μL per well and incubated again at room temperature for 1 hour. The dilution buffer used was a 1:1 mixture of 25 mL of 1× casein solution and 25 mL of 1×PBS. Next, 50 μL of HRP-conjugated goat anti-human IgG was diluted in 10 mL of dilution buffer and dispensed at 100 μL per well, followed by incubation at room temperature for 1 hour. The wells were then washed three times with 200 μL of wash buffer. TMB substrate (50 μL per well) was added. The plates were incubated at room temperature for 10 minutes. The reaction was stopped by adding 50 μL per well of 1 N sulfuric acid as a stop solution, and absorbance was measured at 450 nm using a spectrophotometer.

[3] = target: T1, recombinant histidine-tagged canine …; experiment: cell-based or functional assay

Row | EC50 [1] | EC50 [2] [µg/mL] | TF-1 cell proliferation inhibition IC50 [3] [nM] | Binder
1 | 0.162 µg/mL and 1.08 nM | – | – | Chimeric 32A10 CO (antibody, V domains shown, also called Chimeric antibody (CO type)) VH: QVQLKQSGPELVKPGASVKVSCKTSGYSFTDYPIYWVRQSHGESLEWIGYIDPYNGGTTYNQNFKDKATLTVDKSSSTAFMHLYSLTSEDSAVYFCATAVVATDVMENWGQGTSVTVSS VL: DIVLTQSQKFMSTSVGDRVSITCKASQNVRNAVAWFQQKPGQSPKALIYLASNRYTGVPDHFTGSGSGTDFTLTISNVQSEDLADYFCLQHWNYPLTFGAGTKLELK
2 | – | 0.0572 | 71.5 | Ab4 (antibody, V domains shown, Caninized antibody) VH: EVQLVQSGAEVKKPGASVKVSCKTSGYTFIDYPMYWVRQAPGAGLEWMGYIDPYNGATSYNQNFKGRVTLTADKSTSTAYMELSSLRAGDIAVYYCATAVVATDVMENWGQGTLVTVSS VL: EIVMTQSPASLSLSQEERVTITCRASQNVRNALAWYQQKPGQAPKLLIYLTSNRYTGVPSRFSGSGSGTDFTFTISSLEPEDVAVYYCLQHWNYPLTFGAGTKVELK
3 | – | 0.0782 | – | Ab2 (antibody, V domains shown, Caninized antibody) VH: EVQLVQSGAEVKKPGASVKVSCKTSGYTFIDYPMYWVRQAPGAGLEWMGYIDPYNGATSYNQKFQGRVTLTADTSTSTAYMELSSLRAGDIAVYYCARAVVATDVMENWGQGTLVTVSS VL: EIVLTQSPASLSLSQEERVTITCKASQNVRNAVAWFQQKPGQAPKALIYLASNRYTGVPSRFSGSGSGTDFTLTISSLEPEDVADYFCLQHWNYPLTFGAGTKVELK
4 | – | 0.122 | 1.13 | Ab21 (antibody, V domains shown, Caninized antibody) VH: EVQLVQSGAEVVKPGASVKVSCKTSGYSFTDYPIYWVRQAPGAGLEWIGYIDPYNGGTTYNQNFKDRVTLTADKSTSTAYMELSSLRAGDIAVYYCATAVVATDVMENWGQGTLVTVSS VL: EIVLTQSPASLSLSQEERVTITCKASQNVRNAVAWFQQKPGQAPKALIYLASNRYTGVPSRFSGSGSGTDFTLTISSLEPEDVADYFCLQHWNYPLTFGAGTKVELK
5 | – | 0.0819 | – | Ab10 (antibody, V domains shown, Caninized antibody) VH: EVQLVQSGAEVKKPGASVKVSCKTSGYTFIDYPMYWVRQAPGAGLEWMGYIDPYNGATSYNQNFKGRVTLTADKSTSTAYMELSSLRAGDIAVYYCATAVVATDVMENWGQGTLVTVSS VL: DIVMTQTPLSLSVSPGETASISCKASQNLRNALAWFRQKPGQSPQALIYLVSNRYPGVPDRFSGSGSGTDFTLRISRVEAEDTGVYYCLQHWQYPLTFGAGTKVELK
6 | – | 0.137 | 0.98 | Ab22 (antibody, V domains shown, Caninized antibody) VH: EVQLVQSGAEVVKPGASVKVSCKTSGYSFTDYPIYWVRQAPGAGLEWIGYIDPYNGGTTYNQNFKDRVTLTADKSTSTAYMELSSLRAGDIAVYYCATAVVATDVMENWGQGTLVTVSS VL: DIVLTQTPLSLSVSPGETASISCKASQNVRNAVAWFRQKPGQSPQALIYLASNRYTGVPDRFSGSGSGTDFTLRISRVEAEDTGDYFCLQHWNYPLTFGAGTKVELK
7 | – | 0.108 | 35.2 | Ab23 (antibody, V domains shown, Caninized antibody) VH: EVQLVQSGAEVVKPGASVKVSCKTSGYSFTDYPIYWVRQAPGAGLEWIGYIDPYNGGTTYNQNFKDRVTLTADKSTSTAYMELSSLRAGDIAVYYCATAVVATDVMENWGQGTLVTVSS VL: DIVMTQTPLSLSVSPGETASISCKASQNLRNALAWFRQKPGQSPQALIYLVSNRYPGVPDRFSGSGSGTDFTLRISRVEAEDTGVYYCLQHWQYPLTFGAGTKVELK
8 | – | 1.78 | – | Ab14 (antibody, V domains shown, Caninized antibody) VH: EVQLVQSGAEVKKPGASVKVSCKTSGYTFIDYPMYWVRQAPGAGLEWMGYIDPYNGATSYNQKFQGRVTLTADTSTSTAYMELSSLRAGDIAVYYCARAVVATDVMENWGQGTLVTVSS VL: DIVMTQTPLSLSVSPGETASISCKASQSLRSALAWFRQKPGQSPQRLIYLVSNRYPGVPDRFSGSGSGTDFTLRISRVEAEDTGVYYCLQHWQFPLTFGAGTKVELK
9 | – | 0.134 | 4.09 | Ab24 (antibody, V domains shown, Caninized antibody) VH: EVQLVQSGAEVKKPGASVKVSCKTSGYTFIDYPMYWVRQAPGAGLEWMGYIDPYNGATSYNQNFKGRVTLTADKSTSTAYMELSSLRAGDIAVYYCATAVVATDVMENWGQGTLVTVSS VL: DIVLTQTPLSLSVSPGETASISCKASQNVRNAVAWFRQKPGQSPQALIYLASNRYTGVPDRFSGSGSGTDFTLRISRVEAEDTGDYFCLQHWNYPLTFGAGTKVELK
10 | – | 12.4 | – | Ab8 (antibody, V domains shown, Caninized antibody) VH: EVQLVQSGAEVKKPGASVKVSCKTSGYTFIDYPMYWVRQAPGAGLEWMGYIDPYNGATSYNQKFQGRVTLTADTSTSTAYMELSSLRAGDIAVYYCARAVVATDVMENWGQGTLVTVSS VL: EIVMTQSPASLSLSQEERVTITCRASQSVRSALAWYQQKPGQAPKLLIYGTSNRYTGVPSRFSGSGSGTDFTFTISSLEPEDVAVYYCLQHWSYPLTFGAGTKVELK
11 | – | 0.0564 | – | Ab1 (antibody, V domains shown, Caninized antibody) VH: EVQLVQSGAEVKKPGASVKVSCKTSGYTFIDYPMYWVRQAPGAGLEWMGYIDPYNGATSYNQNFKGRVTLTADKSTSTAYMELSSLRAGDIAVYYCATAVVATDVMENWGQGTLVTVSS VL: EIVLTQSPASLSLSQEERVTITCKASQNVRNAVAWFQQKPGQAPKALIYLASNRYTGVPSRFSGSGSGTDFTLTISSLEPEDVADYFCLQHWNYPLTFGAGTKVELK
12 | – | 4.39 | – | Ab12 (antibody, V domains shown, Caninized antibody) VH: EVQLVQSGAEVVKPGASVKVSCKTSGYSFTDYPIYWVRQAPGAGLEWIGYIDPYNGGTTYNQNFKDRVTLTADKSTSTAYMELSSLRAGDIAVYYCATAVVATDVMENWGQGTLVTVSS VL: DIVMTQTPLSLSVSPGETASISCKASQSLRSALAWFRQKPGQSPQRLIYLVSNRYPGVPDRFSGSGSGTDFTLRISRVEAEDTGVYYCLQHWQFPLTFGAGTKVELK
13 | – | 0.0926 | – | Ab9 (antibody, V domains shown, Caninized antibody) VH: EVQLVQSGAEVKKPGASVKVSCKTSGYTFIDYPMYWVRQAPGAGLEWMGYIDPYNGATSYNQKFQGRVTLTADTSTSTAYMELSSLRAGDIAVYYCARAVVATDVMENWGQGTLVTVSS VL: DIVLTQTPLSLSVSPGETASISCKASQNVRNAVAWFRQKPGQSPQALIYLASNRYTGVPDRFSGSGSGTDFTLRISRVEAEDTGDYFCLQHWNYPLTFGAGTKVELK
14 | – | 0.0459 | 52.7 | Ab3 (antibody, V domains shown, Caninized antibody) VH: EVQLVQSGAEVVKPGASVKVSCKTSGYSFTDYPIYWVRQAPGAGLEWIGYIDPYNGGTTYNQNFKDRVTLTADKSTSTAYMELSSLRAGDIAVYYCATAVVATDVMENWGQGTLVTVSS VL: EIVMTQSPASLSLSQEERVTITCRASQNVRNALAWYQQKPGQAPKLLIYLTSNRYTGVPSRFSGSGSGTDFTFTISSLEPEDVAVYYCLQHWNYPLTFGAGTKVELK
15 | – | 0.246 | – | Ab6 (antibody, V domains shown, Caninized antibody) VH: EVQLVQSGAEVVKPGASVKVSCKTSGYSFTDYPIYWVRQAPGAGLEWIGYIDPYNGGTTYNQNFKDRVTLTADKSTSTAYMELSSLRAGDIAVYYCATAVVATDVMENWGQGTLVTVSS VL: EIVMTQSPASLSLSQEERVTITCRASQSVRSALAWYQQKPGQAPKLLIYGTSNRYTGVPSRFSGSGSGTDFTFTISSLEPEDVAVYYCLQHWSYPLTFGAGTKVELK
16 | – | 0.0765 | 34.2 | Ab5 (antibody, V domains shown, Caninized antibody) VH: EVQLVQSGAEVKKPGASVKVSCKTSGYTFIDYPMYWVRQAPGAGLEWMGYIDPYNGATSYNQKFQGRVTLTADTSTSTAYMELSSLRAGDIAVYYCARAVVATDVMENWGQGTLVTVSS VL: EIVMTQSPASLSLSQEERVTITCRASQNVRNALAWYQQKPGQAPKLLIYLTSNRYTGVPSRFSGSGSGTDFTFTISSLEPEDVAVYYCLQHWNYPLTFGAGTKVELK
17 | – | 0.111 | – | Ab11 (antibody, V domains shown, Caninized antibody) VH: EVQLVQSGAEVKKPGASVKVSCKTSGYTFIDYPMYWVRQAPGAGLEWMGYIDPYNGATSYNQKFQGRVTLTADTSTSTAYMELSSLRAGDIAVYYCARAVVATDVMENWGQGTLVTVSS VL: DIVMTQTPLSLSVSPGETASISCKASQNLRNALAWFRQKPGQSPQALIYLVSNRYPGVPDRFSGSGSGTDFTLRISRVEAEDTGVYYCLQHWQYPLTFGAGTKVELK
